Measurements from patent US20160333065A1 (ACADEMISCH ZIEKENHUIS LEIDEN H O D N LUMC, published 2016).

Key:
[1] = biological target: T1, HLA-B62 (B*1501) (human); test: cellular competition binding assay on acid-stripped B-LCL BSM, flow cytometry; competitor Fl-labeled reference peptide YLGEFSC(Fl)TY
T1 construct: MHC class I molecule on mild-acid-stripped EBV-transformed B cells (BSM)

[2] = biological target: T2, HLA-B60 (B*4001) (human); test: cellular competition binding assay on acid-stripped B-LCL DKB, flow cytometry; competitor Fl-labeled reference peptide KESTC(Fl)HLVL
T2 construct: MHC class I molecule on mild-acid-stripped EBV-transformed B cells (DKB)

[3] = biological target: T3, HLA-B8 (B*0801) (human); test: cellular competition binding assay on acid-stripped B-LCL Vavy, flow cytometry; competitor Fl-labeled reference peptide FLRGRAC(Fl)GL
T3 construct: MHC class I molecule on mild-acid-stripped EBV-transformed B cells (Vavy)

[4] = biological target: T4, HLA-B7 (B*0702) (human); test: competition vs APAPAPC(FI)WPL on stripped B-LCL, FACS
T4 construct: HLA class I on acid-stripped EBV-transformed B cells (B-LCL)

[5] = biological target: T5, HLA-B8 (B*0801) (human); test: competition vs FLRGRAC(FI)GL on stripped B-LCL, FACS
T5 construct: HLA class I on acid-stripped EBV-transformed B cells (B-LCL)

[6] = biological target: T6, HLA-A3 (A*0301) (human); test: cellular competition binding assay on acid-stripped B-LCL EKR, flow cytometry; competitor Fl-labeled reference peptide KVFPC(Fl)ALINK
T6 construct: MHC class I molecule on mild-acid-stripped EBV-transformed B cells (EKR)

[7] = biological target: T7, HLA-B8 (B*0801) (human); test: cell competition vs FLRGRAC(FI)GL, stripped Vavy B-LCL, FACS
T7 construct: Acid-stripped B-LCL

[8] = biological target: T8, HLA-B7 (B*0702) (human); test: cell competition vs APAPAPC(FI)WPL, stripped JY B-LCL, FACS
T8 construct: Acid-stripped B-LCL

[9] = biological target: T9, HLA-B35 (B*3501) (human); test: cellular competition binding assay on acid-stripped B-LCL BVR, flow cytometry; competitor Fl-labeled reference peptide NPDIVC(Fl)YQY
T9 construct: MHC class I molecule on mild-acid-stripped EBV-transformed B cells (BVR)

Question: For VLYPVPLESY [PRAME 439-448 VLYPVPLESY], which IC50 [1] is on record?
Answer: Its IC50 is 1660 nM.

Question: How did the IC50 [2] turn out when YEDIHGTLHL [PRAME 448-457 YEDIHGTLHL] was run?
Answer: Its IC50 is under 1000 nM.

Question: Which IC50 [3] does the source give for YLHARLREL [PRAME 462-470 YLHARLREL] here?
Answer: Its IC50 is under 1000 nM.

Question: RPRRWKLQVL [PRAME 113-122 RPRRWKLQVL] was tested. Which IC50 [4] did it give?
Answer: The IC50 was under 1000 nM.

Question: What about the IC50 [5] of the same binder?
Answer: The IC50 was under 1000 nM.

Question: With RLAYLHARLR [PRAME 459-468 RLAYLHARLR] as the binder, how does the IC50 [6] read?
Answer: Its IC50 is 1000 nM.

Question: RPRRWKLQVL [PRAME peptide RPRRWKLQVL] was tested. Which IC50 [7] did it give?
Answer: Its IC50 is under 1000 nM.

Question: And the IC50 [8]?
Answer: The IC50 was under 1000 nM.

Question: With EPILCPCFM [PRAME 499-507 EPILCPCFM] as the binder, how does the IC50 [9] read?
Answer: Its IC50 is 320 nM.
